Data as given in patent US20060153850A1.

Experiments:
[1] = target: human M-CSF (macrophage colony stimulating factor) (human) (UniProt P09603); assay: cell-based or functional assay
[2] = target: human M-CSF (macrophage colony stimulating factor) (human) (UniProt P09603); assay: c-fms receptor binding inhibition assay: antibody varied, 125I-M-CSF binding to c-fms-bearing cells

B1: monoclonal antibody 9.7.2 (antibody, human IgG4, kappa, V domains shown)
VH: QVQLVESGGGLVKPGGSLRLSCAASGFTFSDYYMSWIRQAPGKGLEWVSYISSSGSTIYYADSVKGRFTISRDNAKNSLYLQMNSLRAEDTAVYYCARRIGGMDVWGQGTTVTVSS
VL: DIQMTQSPSSLSASVGDRVTITCRASQSISGFLIWYQQRPGKAPKLLIYATSSLQSGVPLRFSGSESGTDFTLTISSLQPEDFATYYCQQSYSTPFTFGPGTKVDIKR
**Q.** Which results are given for B1?
**A.** Human Whole Blood Monocyte Activation Assay [IC50, M] [1]: 1.98e-10 M; M-CSF Mouse Monocytic Cell Proliferation Assay [IC50, M] [1]: 7.37e-10 M; IC50 [2]: 0.006 nM
